Results published in PMC5336186 (Nature cell biology, 2017).

Columns and labels:
[1] = target: T1, GST-LLGL2, unphosphorylated (No-P) (UniProt Q6P1M3 1-1020); assay: pull-down
T1 sequence (looked up): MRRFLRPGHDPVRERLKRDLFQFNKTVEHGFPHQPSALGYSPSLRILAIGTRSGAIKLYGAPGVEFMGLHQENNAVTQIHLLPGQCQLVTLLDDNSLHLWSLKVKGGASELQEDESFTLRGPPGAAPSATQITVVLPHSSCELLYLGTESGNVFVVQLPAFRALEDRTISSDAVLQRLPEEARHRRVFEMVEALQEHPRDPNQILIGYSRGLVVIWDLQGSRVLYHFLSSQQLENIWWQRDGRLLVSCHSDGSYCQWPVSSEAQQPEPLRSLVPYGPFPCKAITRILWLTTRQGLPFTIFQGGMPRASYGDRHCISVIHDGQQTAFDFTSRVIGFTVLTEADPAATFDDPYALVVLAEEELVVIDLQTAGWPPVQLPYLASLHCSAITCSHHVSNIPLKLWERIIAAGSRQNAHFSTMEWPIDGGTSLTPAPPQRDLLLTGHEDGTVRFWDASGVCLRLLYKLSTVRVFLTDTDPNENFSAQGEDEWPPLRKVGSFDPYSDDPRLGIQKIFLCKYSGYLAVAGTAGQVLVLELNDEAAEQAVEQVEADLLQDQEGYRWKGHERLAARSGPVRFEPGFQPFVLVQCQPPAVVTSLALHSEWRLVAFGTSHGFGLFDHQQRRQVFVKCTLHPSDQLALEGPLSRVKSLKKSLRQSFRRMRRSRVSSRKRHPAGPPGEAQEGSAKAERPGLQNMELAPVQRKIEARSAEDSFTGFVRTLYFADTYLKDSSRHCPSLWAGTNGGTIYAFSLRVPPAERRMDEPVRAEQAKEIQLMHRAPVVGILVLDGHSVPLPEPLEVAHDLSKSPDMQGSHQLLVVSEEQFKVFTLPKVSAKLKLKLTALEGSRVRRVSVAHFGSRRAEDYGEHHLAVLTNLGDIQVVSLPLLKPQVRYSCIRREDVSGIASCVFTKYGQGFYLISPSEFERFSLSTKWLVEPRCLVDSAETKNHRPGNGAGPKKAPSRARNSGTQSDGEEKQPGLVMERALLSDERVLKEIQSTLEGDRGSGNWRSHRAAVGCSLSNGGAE

[2] = target: T2, GST-LLGL2 phosphorylated at Tyr499 (P-LLGL2) (UniProt Q6P1M3 1-1020, phosphotyrosine at Tyr499); assay: pull-down
T2 sequence (looked up): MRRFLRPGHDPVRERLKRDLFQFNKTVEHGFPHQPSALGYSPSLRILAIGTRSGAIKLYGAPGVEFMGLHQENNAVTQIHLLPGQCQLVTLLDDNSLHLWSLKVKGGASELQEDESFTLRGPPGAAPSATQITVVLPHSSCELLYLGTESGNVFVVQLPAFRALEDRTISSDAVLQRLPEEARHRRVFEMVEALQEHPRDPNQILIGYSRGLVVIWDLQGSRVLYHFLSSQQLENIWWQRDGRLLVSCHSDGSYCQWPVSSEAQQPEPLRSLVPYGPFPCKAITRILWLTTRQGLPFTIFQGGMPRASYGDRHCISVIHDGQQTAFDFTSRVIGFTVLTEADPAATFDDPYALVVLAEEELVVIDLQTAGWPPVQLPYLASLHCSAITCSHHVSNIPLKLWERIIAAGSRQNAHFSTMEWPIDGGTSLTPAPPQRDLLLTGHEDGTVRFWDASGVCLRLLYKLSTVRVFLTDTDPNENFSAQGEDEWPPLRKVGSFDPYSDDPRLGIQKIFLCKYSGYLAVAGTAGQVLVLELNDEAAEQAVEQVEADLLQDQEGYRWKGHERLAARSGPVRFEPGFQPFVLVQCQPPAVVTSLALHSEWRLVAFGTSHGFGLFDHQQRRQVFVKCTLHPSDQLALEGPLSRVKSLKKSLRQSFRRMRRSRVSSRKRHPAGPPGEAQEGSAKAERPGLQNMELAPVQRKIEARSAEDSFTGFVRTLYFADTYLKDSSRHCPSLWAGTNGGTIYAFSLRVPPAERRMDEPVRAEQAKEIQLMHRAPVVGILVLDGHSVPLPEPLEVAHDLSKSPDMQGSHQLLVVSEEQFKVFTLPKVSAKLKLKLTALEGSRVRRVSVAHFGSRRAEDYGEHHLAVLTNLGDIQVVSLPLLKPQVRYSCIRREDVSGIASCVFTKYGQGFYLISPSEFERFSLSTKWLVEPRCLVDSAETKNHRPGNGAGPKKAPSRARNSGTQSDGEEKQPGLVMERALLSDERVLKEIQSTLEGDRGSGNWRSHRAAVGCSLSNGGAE

binding result [1]: binds
binding result [2]: binds
B1: recombinant BCAR3 (natural protein, UniProt O75815 1-825, looked up)
chain: MAAGKFASLPRNMPVNHQFPLASSMDLLSSRSPLAEHRPDAYQDVSIHGTLPRKKKGPPPIRSCDDFSHMGTLPHSKSPRQNSPVTQDGIQESPWQDRHGETFTFRDPHLLDPTVEYVKFSKERHIMDRTPEKLKKELEEELLLSSEDLRSHAWYHGRIPRQVSENLVQRDGDFLVRDSLSSPGNFVLTCQWKNLAQHFKINRTVLRLSEAYSRVQYQFEMESFDSIPGLVRCYVGNRRPISQQSGAIIFQPINRTVPLRCLEEHYGTSPGQAREGSLTKGRPDVAKRLSLTMGGVQAREQNLPRGNLLRNKEKSGSQPACLDHMQDRRALSLKAHQSESYLPIGCKLPPQSSGVDTSPCPNSPVFRTGSEPALSPAVVRRVSSDARAGEALRGSDSQLCPKPPPKPCKVPFLKVPSSPSAWLNSEANYCELNPAFATGCGRGAKLPSCAQGSHTELLTAKQNEAPGPRNSGVNYLILDDDDRERPWEPAAAQMEKGQWDKGEFVTPLLETVSSFRPNEFESKFLPPENKPLETAMLKRAKELFTNNDPKVIAQHVLSMDCRVARILGVSEEMRRNMGVSSGLELITLPHGHQLRLDIIERHNTMAIGIAVDILGCTGTLEDRAATLSKIIQVAVELKDSMGDLYSFSALMKALEMPQITRLEKTWTALRHQYTQTAILYEKQLKPFSKLLHEGRESTCVPPNNVSVPLLMPLVTLMERQAVTFEGTDMWEKNDQSCEIMLNHLATARFMAEAADSYRMNAERILAGFQPDEEMNEICKTEFQMRLLWGSKGAQVNQTERYEKFNQILTALSRKLEPPPVKQAEL
